7 molecules from patent US20180044383A1 (ALBERT EINSTEIN COLLEGE OF MEDICINE, published 2018) can be followed below.

Series [1] addresses FKBP fused to miRFP-GAF670 (UniProt P62942). Briefly: cell-based or functional assay.
In series [2] the target is FKBP fused to miRFP-GAF709 (UniProt P62942). The series can be described thus: cell-based or functional assay.
Series [3] concerns the molecule itself. Briefly: size exclusion chromatography, self-association (no dimer). The source says: As a result, we have obtained miRFP670 (excitation/emission at 642 nm/670 nm) having Cys in the GAF domain and its dimmer version miRFP670v1 (Table 1). By changing Cys back to Ile and mutating residues 201 and 202, we found two red-shifted variants, miRFP703 (excitation/emission at 673 nm/703 nm) and miRFP709 (excitation/emission at 686 nm/709 nm) (Table 1). […] Absorbance of miRFPs was characterized by small side peaks at 280 nm (protein absorbance) and 390 nm (so called Soret band common to all tetrapyrrole compounds) and by large main peaks at 644 nm, 676 nm and 685 nm, indicative of the efficient BV incorporation. Monomeric states of miRFPs was confirmed by a size exclusion chromatography at 1 mg/ml as well as at concentrations as high as 30 mg/ml (FIG. 1d).
To perform size exclusion liquid chromatography a 2 ml volume of purified miRFPs was applied on the HiLoad 16/600 Superdex 200 column (GE Healthcare) equilibrated with 10 mM Hepes buffer pH 7.4 containing 50 μM EDTA, 10% glycerol, 150 mM NaCl, 1 mM DTT, 0.2 mM PMSF, 0.01% EP-40 and 0.2 mM […]. A 1 ml/min flow rate was used. The column was calibrated using the gel filtration standards (Bio-Rad Laboratories).
In general terms: Size exclusion chromatography separates by hydrodynamic size, large species first.

Series [4] concerns the molecule itself. Briefly: sedimentation velocity analytical ultracentrifugation in PBS at 20 C, self-association (no dimer). As for the experimental part:
FIG. 11A-11B. Monomeric state of miRFPs confirmed by analytical ultracentrifugation analysis. miRFPs from each family of miRFPs were analyzed by sedimentation velocity analytical ultracentrifugation. miRFP670 represents miRFP proteins derived from RpBphP1; miRFP670-2 represents monomerized iRFP670 and iRFP702 derived from RpBphP6; miRFP720 represents monomerized iRFP682, iRFP713, and iRFP720 derived from RpBphP2. The proteins were analyzed at concentrations of 15 μM in PBS buffer at 20° C., the time-derivative method was used. (a) Overlay of the sedimentation coefficient distributions for iRFP670-2 (blue), iRFP713 (red), miRFP720 (magenta), and miRFP670 (cyan). (b) Overlay of the normalized best-fit sedimentation coefficient distributions. (c) The residuals corresponding to the resolved fits shown in (b).
Analytical ultracentrifugation was conducted at 20° C. and 58,000 r.p.m. with anOptima XL-I centrifuge (Beckman Coulter) using the AN-60Ti rotor and the absorption optics set to 645 nm. Sednterp v.20120828beta software was used to calculate the partial specific volume of the proteins from their sequence and the density and viscosity of the buffers. The sedimentation parameters were corrected to standard conditions (20,w) using these values. […]

The next series addresses T1, miRFP-GAF709.
T1 construct: Split fragment; in the experiments it stood as a fusion (to FKBP or PCP); also called GAF fragment of miSplit709
T1 chain: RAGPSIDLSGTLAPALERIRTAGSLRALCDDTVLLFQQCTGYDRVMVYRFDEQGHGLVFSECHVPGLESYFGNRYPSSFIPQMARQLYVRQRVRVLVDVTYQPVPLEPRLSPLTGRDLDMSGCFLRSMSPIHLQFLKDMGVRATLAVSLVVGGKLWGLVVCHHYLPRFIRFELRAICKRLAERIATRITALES
The series can be described thus: bimolecular fluorescence complementation in HeLa cells (fragments as FRB and FKBP fusions, rapamycin-induced). As for the experimental part: (§1) The two mSplits share the same miRFP-PAS fragment that can interact with either miRFP-GAF670 or miRFP-GAF709 fragments producing the fluorescence signal corresponding to complemented miSplit670 or miSplit709, respectively. (b, c) Brightness and complementation contrast of miSplit670 (b) and miSplit709 (c) in live HeLa cells. HeLa cells were transiently transfected with the plasmids encoding the indicated proteins. Rapamycin (Rapa) was added where indicated. The mean fluorescence intensities of cells were analyzed by flow cytometry. Error bars, s.d. (n=3; transfection experiments). (d) Two-color imaging of two alternative PPIs in one cell. […] MCP and PCP are fused with two fragments of mi Split reporter. mRNA serves as a scaffold to bring two split fragments together and reconstitute fluorescence. […] The mean fluorescence intensities of cells were analyzed by flow cytometry. […] (g) Representative images of live HeLa cells analyzed in (f). […]
(§2) We first characterized miSplits using a rapamycin-induced PPI of FRB and FKBP proteins. We fused FRB to the miRFP-PAS domain and FKBP to either miRFP-GAF670 or miRFP-GAF709 domains and tested their effective brightness and BiFC contrast (the ratio between a stimulus-induced fluorescence signal and a fluorescence signal originated from non-specific complementation) in mammalian cells.

In the next series the target is T2, miRFP-GAF670.
T2 construct: Split fragment; in the experiments it stood as a fusion (to FKBP or PCP); also called GAF fragment of miSplit670
T2 chain: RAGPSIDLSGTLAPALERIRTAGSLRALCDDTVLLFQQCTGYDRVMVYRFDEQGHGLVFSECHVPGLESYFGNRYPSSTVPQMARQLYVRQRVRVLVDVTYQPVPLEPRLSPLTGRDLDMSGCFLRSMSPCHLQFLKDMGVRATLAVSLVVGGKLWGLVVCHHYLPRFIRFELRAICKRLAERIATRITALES
The series is described as above. As to the method: as §1, §2

Regarding “FRB fused to miRFP-PAS (from UniProt P42345 2021-2113)”, in series [1], the BiFC contrast 0.5 h after rapamycin addition came out at 2 fold; the BiFC contrast (the ratio between a stimulus-induced fluorescence signal and a fluorescence signal originated from non-specific complementation), miSplit670, HeLa cells, flow cytometry, 50 nM rapamycin was more than 20 fold; the effective brightness of the complemented miSplit670 relative to parental full-length miRFP is more than 40%. In series [2], the BiFC contrast 0.5 h after rapamycin addition stood at 2 fold; the BiFC contrast (the ratio between a stimulus-induced fluorescence signal and a fluorescence signal originated from non-specific complementation), miSplit709, HeLa cells, flow cytometry, 50 nM rapamycin was more than 20 fold; the effective brightness of the complemented miSplit709 relative to parental full-length miRFP is more than 40%.

B1: miRFP670 (other)
chain: MVAGHASGSPAFGTASHSNCEHEEIHLAGSIQPHGALLVVSEHDHRVIQASANAAEFLNLGSVLGVPLAEIDGDLLIKILPHLDPTAEGMPVAVRCRIGNPSTEYCGLMHRPPEGGLIIELERAGPSIDLSGTLAPALERIRTAGSLRALCDDTVLLFQQCTGYDRVMVYRFDEQGHGLVFSECHVPGLESYFGNRYPSSTVPQMARQLYVRQRVRVLVDVTYQPVPLEPRLSPLTGRDLDMSGCFLRSMSPCHLQFLKDMGVRATLAVSLVVGGKLWGLVVCHHYLPRFIRFELRAICKRLAERIATRITALES
modifications: biliverdin (BV) chromophore; filing says miRFP670 has the BV-binding Cys in the GAF domain (-PIH- motif Ile replaced by Cys)
notes: Monomeric near-infrared fluorescent protein engineered from the PAS-GAF domains of RpBphP1; also called mRFP670
Take B1: in series [3], the binding result is “no binding (tested: 30 mg/ml)”.

B2: miRFP709 (other)
chain: MVAGHASGSPAFGTASHSNCEHEEIHLAGSIQPHGALLVVSEHDHRVIQASANAAEFLNLGSVLGVPLAEIDGDLLIKILPHLDPTAEGMPVAVRCRIGNPSTEYCGLMHRPPEGGLIIELERAGPSIDLSGTLAPALERIRTAGSLRALCDDTVLLFQQCTGYDRVMVYRFDEQGHGLVFSECHVPGLESYFGNRYPSSFIPQMARQLYVRQRVRVLVDVTYQPVPLEPRLSPLTGRDLDMSGCFLRSMSPIHLQFLKDMGVRATLAVSLVVGGKLWGLVVCHHYLPRFIRFELRAICKRLAERIATRITALES
modifications: biliverdin (BV) chromophore bound to the conserved Cys residue in the PAS domain
notes: Engineered from RpBphP1 PAS-GAF
On to B2, for which the binding result in series [3] was “no binding (tested: 30 mg/ml)”.

B3: miRFP703 (other)
chain: MVAGHASGSPAFGTASHSNCEHEEIHLAGSIQPHGALLVVSEHDHRVIQASANAAEFLNLGSVLGVPLAEIDGDLLIKILPHLDPTAEGMPVAVRCRIGNPSTEYCGLMHRPPEGGLIIELERAGPSIDLSGTLAPALERIRTAGSLRALCDDTVLLFQQCTGYDRVMVYRFDEQGHGLVFSECHVPGLESYFGNRYPSSLVPQMARQLYVRQRVRVLVDVTYQPVPLEPRLSPLTGRDLDMSGCFLRSMSPIHLQFLKDMGVRATLAVSLVVGGKLWGLVVCHHYLPRFIRFELRAICKRLAERIATRITALES
modifications: biliverdin (BV) chromophore bound to the conserved Cys residue in the PAS domain
notes: as for B2
For B3, the binding result in series [3] is “no binding (tested: 30 mg/ml)”.

B4: miRFP720 (other)
chain: MAEGSVARQPDLLTCDDEPIHIPGAIQPHGLLLALAADMTIVAGSDNLPELTGLAIGALIGRSAADVFDSETHNRLTIALAEPGAAVGAPITVGFTMRKDAGFIGSWHRHDQLIFLELEPPQRDVAEPQAFFRRTNSAIRRLQAAETLESACAAAAQEVRKITGFDRVMIYRFASDFSGSVIAEDRCAEVESKLGLHYPASFIPAQARRLYTINPVRIIPDINYRPVPVTPDLNPVTGRPIDLSFAILRSVSPNHLEFMRNIGMHGTMSISILRGERLWGLIVCHHRTPYYVDLDGRQACKRVAERLATQIGVMEE
modifications: biliverdin (BV) chromophore
notes: Monomerized version of dimeric iRFP720 (derived from RpBphP2); also called monomerized iRFP720
B4: the binding result in series [4] was “no binding (tested: 15 µM)”.

B5: miRFP-PAS (other)
chain: MVAGHASGSPAFGTASHSNCEHEEIHLAGSIQPHGALLVVSEHDHRVIQASANAAEFLNLGSVLGVPLAEIDGDLLIKILPHLDPTAEGMPVAVRCRIGNPSTEYCGLMHRPPEGGLIIELERAGP
notes: Split fragment; in the experiments it stood as a fusion (to FRB or to MCP); also called miRFP670-PAS domain; PAS fragment of miSplit670 and miSplit709
Regarding B5, the binding result in the series with miRFP-GAF709 and in the series with miRFP-GAF670 was “binds” each time.

B6: miRFP670-2 (other)
chain: MARKVDLTSCDREPIHIPGSIQPCGCLLACDAQAVRITRITENAGAFFGRETPRVGELLADYFGETEAHALRNALAQSSDPKRPALIFGWRDGLTGRTFDISLHRHDGTSIIEFEPAAAEQADNPLRLTRQIIARTKELKSLEEMAARVPRYLQAMLGYHRVMLYRFADDGSGMVIGEAKRSDLESFLGQHFPASLVPQQARLLYLKNAIRVVSDSRGISSRIVPEHDASGAALDLSFAHLRSISPCHLEFLRNMGVSASMSLSIIIDGTLWGLIICHHYEPRAVPMAQRVAAKRFAERLSTHFTAAHHQR
modifications: biliverdin (BV) chromophore
notes: Monomerized version of dimeric iRFP670 (derived from RpBphP6); also called monomerized iRFP670
On to B6, for which, in series [4], the binding result is given as “no binding (tested: 15 µM)”.
